{"source": "patent US20230321192A1", "about": "(published 2023)", "binders": {"B1": {"name": "mA7 (ligand)", "chain": "YFGRLHCTTAVIRNINDQVLFVDKRQPVFEDMTDIDQSASEPQTRLIIYAYGDNRVRGKAVTLSVKDSKMSTLSCKNKIISFEEMDPPENIDDIQSDLIFFQKRVPGHNKMEFESSLYEGHFLACQKEDDAFKLILKKKDENGDKSVMFTLTNLHQS", "notes": "Murine DR-IL-18 variant; recombinant with C-terminal hexahistidine tag in SPR; fusion and tag not written"}, "B2": {"name": "mCS2 (ligand)", "chain": "B1 chain with Y1H, N54S, V56A", "notes": "Murine DR-IL-18 consensus variant; recombinant with C-terminal hexahistidine tag in SPR; fusion and tag not written"}, "B3": {"name": "mE8 (ligand)", "chain": "B1 chain with Y1N, A50V, G52T, N54G, V56R, R104K, N109D", "notes": "as for B1"}, "B4": {"name": "mC1 (ligand)", "chain": "B1 chain with Y1N, G52V, N54R, V56L, R104K", "notes": "as for B1"}, "B5": {"name": "hA8 (ligand)", "chain": "YFGKLESRLSVIRNLNDQVLFIDQGNRPLFEDMTDSDCRDNAPRTIFIISKYKDKQPRAQAVTISVKCEKISTLSCENKIISFKEMNPPDNIKDTKSDIIFFQRDVPGHKHKMQFESSSYEGYFLACEKERDLFKLILKKEDELGDRSIMFTIQNED", "notes": "Human DR-IL-18 variant; display fusion not written"}, "B6": {"name": "hCS2 (ligand)", "chain": "B5 chain with R8K, K51T, Q60K", "notes": "Human DR-IL-18 consensus variant; E. coli recombinant with C-terminal hexahistidine tag in SPR; fusion and tag not written"}, "B7": {"name": "Human IL-18BP (amino acids 31-194) (receptor)", "chain": "TPVSQTTTAATASVRSTKDPCPSQPPVFPAAKQCPALEVTWPEVEVPLNGTLSLSCVACSRFPNFSILYWLGNGSFIEHLPGRLWEGSTSRERGSTGTQLCKALVLEQLTPALHSTNFSCVLVDPEQVVQRHVVLAQLWAGLRATLPPTQEALPSSHSSPQQQGGLNDIFEAQKIEWHEHHHHHH", "modifications": "biotin on the AviTag (BirA ligase) where used biotinylated"}}, "key": {"[1]": {"target": "T1, Mouse IL-18BP (amino acids 31-194) (mouse, UniProt Q9Z0M9 29-193, biotin on the AviTag (BirA ligase))", "T1 construct": "Secreted from Expi293 cells (H7 signal peptide); also called mIL-18BP", "T1 sequence": "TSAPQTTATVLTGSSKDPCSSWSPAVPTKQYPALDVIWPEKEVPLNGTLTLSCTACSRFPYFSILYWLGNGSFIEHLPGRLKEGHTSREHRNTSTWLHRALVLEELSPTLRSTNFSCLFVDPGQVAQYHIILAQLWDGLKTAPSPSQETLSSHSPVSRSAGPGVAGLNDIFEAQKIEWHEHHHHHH", "test": "SPR; end of the range tied to mA7 by Table 9"}, "[2]": {"target": "T1, Mouse IL-18BP (amino acids 31-194)", "test": "SPR", "protocol": "Experiments were conducted using a Biacore T100 and carried out at 25° C. Biotinylated IL-18Rα or IL-18BP were immobilized onto a Biacore biotin capture chip (Series S CAP sensor chip, GE Healthcare) to yield an Rmax of ~50 RU (IL-18Rα) or ~10 RU (IL-18BP). Measurements were made with serial dilutions of the IL-18 variants in HEPES buffered Saline-P+ buffer (10 mM HEPES pH 7.4, 150 mM NaCl, 0.005% surfactant P20). The surface was regenerated by three 60-sec injections of regeneration buffer (¾ (v/v) 8 M guanidine hydrochloride with ¼ (v/v) 1 M sodium hydroxide). Experiments were performed in multiple channels simultaneously for increased observations. All data were analyzed with the Biacore T100 evaluation software version 2.0 with a 1:1 Langmuir binding model.\nAs the human and mouse interspecies cross-reactivity of IL-18 for IL-18Rα is poor, murine equivalents of the DR-IL-18 variants that could be used for studies in mice were created. Similar to the approach taken for hIL-18 above, a combinatorial library of mIL-18 variants randomizing a similar set of mIL-18Rα/mIL-18BP contact residues (Table 3) was created, yielding a library of 4 × 10⁸ transformants. Directed evolution was performed on this library similar to how it was performed with the human IL-18 library; the selection strategy is summarized in FIG. 10A."}, "[3]": {"target": "T2, Mouse IL-18Rα ectodomain (amino acids 19-329) (mouse, UniProt Q61098 19-329, biotin on the AviTag (BirA ligase))", "T2 construct": "range 19-329; Secreted from Expi293 cells (H7 signal peptide); also called mIL-18Rα; Ra", "T2 sequence": "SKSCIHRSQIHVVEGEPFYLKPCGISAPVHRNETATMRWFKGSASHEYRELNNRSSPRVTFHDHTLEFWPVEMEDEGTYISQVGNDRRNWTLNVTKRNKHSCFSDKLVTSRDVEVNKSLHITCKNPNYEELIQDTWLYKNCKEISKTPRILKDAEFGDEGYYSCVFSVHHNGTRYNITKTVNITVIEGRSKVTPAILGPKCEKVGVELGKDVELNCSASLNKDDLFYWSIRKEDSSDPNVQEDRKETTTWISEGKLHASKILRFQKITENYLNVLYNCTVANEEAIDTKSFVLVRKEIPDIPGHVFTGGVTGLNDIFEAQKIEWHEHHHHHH", "test": "SPR; end of the range tied to mE8 by Table 9"}, "[4]": {"target": "T1, Mouse IL-18BP (amino acids 31-194)", "test": "SPR; KD ratio normalized to WT IL-18; lower end taken as mE8 (lowest ratio in Table 9)"}, "[5]": {"target": "T1, Mouse IL-18BP (amino acids 31-194)", "test": "SPR; end of the range tied to mC1 by Table 9"}, "[6]": {"target": "B7", "test": "on-yeast binding isotherm, flow cytometry"}, "[7]": {"target": "T3, Human Interleukin-18 (mature form), wild-type (human, UniProt Q14116 37-193)", "T3 sequence": "B5 chain with R8K, K51M, K55S, A59G, Q60M, D105S, K110D, H111N, I153V", "test": "cell-based or functional assay"}}, "note": "Substitutions are numbered along the chain they refer to.", "data": [{"binder": "B1", "values": [{"measurement": "Kd", "setting": "[1]", "value": 14, "unit": "µM"}]}, {"binder": "B2", "values": [{"measurement": "Kd", "setting": "[2]", "value": 11, "unit": "µM"}]}, {"binder": "B3", "values": [{"measurement": "Kd", "setting": "[3]", "value": 0.0017, "unit": "µM"}, {"measurement": "IL-18 BP:Ra Dissociation Constant Ratio", "setting": "[4]", "value": "9.3e+06"}]}, {"binder": "B4", "values": [{"measurement": "Kd", "setting": "[5]", "value": 29, "unit": "µM"}]}, {"binder": "B5", "values": [{"measurement": "EC50", "setting": "[6]", "value": "> 1", "unit": "µM"}]}, {"binder": "B6", "values": [{"measurement": "EC50", "setting": "[6]", "value": "> 1", "unit": "µM"}]}, {"binder": "B7", "values": [{"measurement": "IC50 of recombinant IL-18BP on the IL-18 HEK-Blue reporter signal (hIL-18 fixed at 5 nM)", "setting": "[7]", "value": 0.003, "unit": "µM"}]}]}
